Earlier results, collected in PMC4131687.

Columns and labels:
[1] = molecular target: NaV1.4 (Rattus norvegicus) (UniProt P15390)
[2] = molecular target: NaV1.2 (Rattus norvegicus) (UniProt P04775)
NaV1.2 (Rattus norvegicus), sequence (P04775 whole entry): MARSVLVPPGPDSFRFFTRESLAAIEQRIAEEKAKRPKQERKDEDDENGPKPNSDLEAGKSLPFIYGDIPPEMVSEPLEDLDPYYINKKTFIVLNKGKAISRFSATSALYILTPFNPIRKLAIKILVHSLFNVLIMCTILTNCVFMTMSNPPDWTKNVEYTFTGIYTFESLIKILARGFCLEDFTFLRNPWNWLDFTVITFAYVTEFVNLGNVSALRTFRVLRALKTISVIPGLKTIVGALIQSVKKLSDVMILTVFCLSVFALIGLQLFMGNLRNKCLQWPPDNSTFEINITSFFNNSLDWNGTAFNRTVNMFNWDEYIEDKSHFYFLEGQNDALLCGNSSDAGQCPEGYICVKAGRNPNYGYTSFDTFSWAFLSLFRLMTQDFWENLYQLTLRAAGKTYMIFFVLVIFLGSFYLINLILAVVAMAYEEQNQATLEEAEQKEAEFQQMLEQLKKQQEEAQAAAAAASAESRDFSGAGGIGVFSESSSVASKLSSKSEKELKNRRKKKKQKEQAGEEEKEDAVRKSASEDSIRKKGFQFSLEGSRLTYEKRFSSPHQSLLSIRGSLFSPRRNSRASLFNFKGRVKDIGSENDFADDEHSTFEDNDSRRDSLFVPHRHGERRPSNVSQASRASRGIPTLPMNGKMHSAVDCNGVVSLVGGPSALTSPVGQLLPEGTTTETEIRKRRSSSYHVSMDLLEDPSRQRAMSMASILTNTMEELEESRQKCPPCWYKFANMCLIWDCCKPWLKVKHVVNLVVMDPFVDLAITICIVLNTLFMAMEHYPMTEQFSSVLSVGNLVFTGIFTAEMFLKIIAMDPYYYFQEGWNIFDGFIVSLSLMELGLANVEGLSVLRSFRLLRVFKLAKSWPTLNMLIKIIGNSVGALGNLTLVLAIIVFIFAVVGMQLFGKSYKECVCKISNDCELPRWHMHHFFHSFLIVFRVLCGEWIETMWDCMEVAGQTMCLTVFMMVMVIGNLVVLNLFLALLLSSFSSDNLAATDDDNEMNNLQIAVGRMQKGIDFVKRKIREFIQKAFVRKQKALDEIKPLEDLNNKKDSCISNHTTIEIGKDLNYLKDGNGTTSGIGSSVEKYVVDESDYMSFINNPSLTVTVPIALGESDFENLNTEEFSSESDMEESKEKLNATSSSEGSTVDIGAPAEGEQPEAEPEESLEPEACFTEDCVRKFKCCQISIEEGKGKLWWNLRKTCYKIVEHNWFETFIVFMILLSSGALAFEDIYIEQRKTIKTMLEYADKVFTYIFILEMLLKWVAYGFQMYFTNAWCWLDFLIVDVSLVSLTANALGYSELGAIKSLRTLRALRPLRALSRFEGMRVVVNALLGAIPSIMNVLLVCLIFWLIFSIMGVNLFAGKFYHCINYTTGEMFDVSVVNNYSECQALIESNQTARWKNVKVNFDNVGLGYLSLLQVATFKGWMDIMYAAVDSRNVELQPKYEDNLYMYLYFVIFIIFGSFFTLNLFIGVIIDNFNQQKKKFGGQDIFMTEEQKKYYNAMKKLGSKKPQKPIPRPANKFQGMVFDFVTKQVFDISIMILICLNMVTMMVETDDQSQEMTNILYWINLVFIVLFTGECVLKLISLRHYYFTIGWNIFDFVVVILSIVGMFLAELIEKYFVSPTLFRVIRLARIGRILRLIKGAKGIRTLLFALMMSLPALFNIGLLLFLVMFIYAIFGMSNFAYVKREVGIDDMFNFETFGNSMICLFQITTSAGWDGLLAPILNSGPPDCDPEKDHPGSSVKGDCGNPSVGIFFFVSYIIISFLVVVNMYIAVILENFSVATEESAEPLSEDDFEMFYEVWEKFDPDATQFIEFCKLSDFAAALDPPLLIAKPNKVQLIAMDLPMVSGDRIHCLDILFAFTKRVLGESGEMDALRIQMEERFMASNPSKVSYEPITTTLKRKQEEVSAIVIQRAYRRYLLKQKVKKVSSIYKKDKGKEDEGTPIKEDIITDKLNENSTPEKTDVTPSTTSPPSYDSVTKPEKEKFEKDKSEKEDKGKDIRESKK

NaV1.4 (Rattus norvegicus), sequence (P15390 whole entry): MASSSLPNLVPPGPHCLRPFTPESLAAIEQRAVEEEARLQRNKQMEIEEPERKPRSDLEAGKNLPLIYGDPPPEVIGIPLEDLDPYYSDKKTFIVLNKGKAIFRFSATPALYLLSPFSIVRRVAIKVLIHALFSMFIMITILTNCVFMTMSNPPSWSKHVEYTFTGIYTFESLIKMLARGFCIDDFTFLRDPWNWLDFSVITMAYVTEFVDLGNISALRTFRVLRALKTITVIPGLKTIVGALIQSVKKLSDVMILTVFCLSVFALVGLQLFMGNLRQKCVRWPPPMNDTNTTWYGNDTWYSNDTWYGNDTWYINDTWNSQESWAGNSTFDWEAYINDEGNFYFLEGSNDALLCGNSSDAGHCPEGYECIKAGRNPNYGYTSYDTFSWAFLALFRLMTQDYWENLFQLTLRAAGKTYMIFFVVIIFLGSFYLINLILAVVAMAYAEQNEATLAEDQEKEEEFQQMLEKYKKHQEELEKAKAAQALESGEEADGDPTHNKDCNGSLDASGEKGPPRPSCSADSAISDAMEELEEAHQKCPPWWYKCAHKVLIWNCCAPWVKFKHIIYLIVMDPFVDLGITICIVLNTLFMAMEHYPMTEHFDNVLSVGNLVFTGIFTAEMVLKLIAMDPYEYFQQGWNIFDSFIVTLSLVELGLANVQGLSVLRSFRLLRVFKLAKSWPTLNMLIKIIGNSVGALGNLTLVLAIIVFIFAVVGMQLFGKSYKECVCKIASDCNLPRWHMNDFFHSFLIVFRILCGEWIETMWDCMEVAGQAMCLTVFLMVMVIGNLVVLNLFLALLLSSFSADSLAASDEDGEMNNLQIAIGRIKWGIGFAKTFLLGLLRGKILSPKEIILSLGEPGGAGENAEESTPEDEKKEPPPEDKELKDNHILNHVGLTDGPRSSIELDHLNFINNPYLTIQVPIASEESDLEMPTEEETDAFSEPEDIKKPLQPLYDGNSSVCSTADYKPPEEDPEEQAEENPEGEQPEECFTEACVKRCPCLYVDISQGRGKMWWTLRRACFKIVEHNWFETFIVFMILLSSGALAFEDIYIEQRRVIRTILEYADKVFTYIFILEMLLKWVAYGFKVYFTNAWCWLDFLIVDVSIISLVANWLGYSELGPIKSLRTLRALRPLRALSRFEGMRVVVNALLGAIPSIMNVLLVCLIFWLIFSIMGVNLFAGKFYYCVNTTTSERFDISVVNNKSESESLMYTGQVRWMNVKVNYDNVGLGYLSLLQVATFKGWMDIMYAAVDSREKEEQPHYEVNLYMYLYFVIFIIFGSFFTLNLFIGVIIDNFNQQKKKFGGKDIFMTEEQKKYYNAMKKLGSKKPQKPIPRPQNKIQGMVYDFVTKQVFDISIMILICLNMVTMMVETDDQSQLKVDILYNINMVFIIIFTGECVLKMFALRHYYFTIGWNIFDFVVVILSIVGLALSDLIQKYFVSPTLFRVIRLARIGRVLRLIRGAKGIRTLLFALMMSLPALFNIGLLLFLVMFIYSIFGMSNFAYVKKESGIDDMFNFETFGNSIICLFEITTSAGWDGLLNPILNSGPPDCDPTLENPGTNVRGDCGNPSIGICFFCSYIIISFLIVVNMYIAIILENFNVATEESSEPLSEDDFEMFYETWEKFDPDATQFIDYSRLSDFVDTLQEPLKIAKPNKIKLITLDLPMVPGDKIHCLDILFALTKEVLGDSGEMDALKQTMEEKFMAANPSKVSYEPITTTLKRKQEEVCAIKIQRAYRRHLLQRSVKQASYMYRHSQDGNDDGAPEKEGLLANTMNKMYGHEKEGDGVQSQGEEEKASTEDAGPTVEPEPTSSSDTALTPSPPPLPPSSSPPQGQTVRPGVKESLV

Substance | Kd [1] [nM] | Kd [2] [nM]
mu-conotoxin KIIIA (from UniProt P0C195) | 50 | 
μ-conotoxin KIIIA-P1 (from UniProt P0C195) |  | 5
